# Results reported in PMC10500007, “De novo design of highly selective miniprotein inhibitors of integrins αvβ6 and αvβ8” (Nature Communications, 2023).
# Tests used:
# B8_BP_dslf = biological target: T1, B8_BP_dslf; assay: BLI; Octet RED96; His-tagged and Avi-tagged minibinders immobilised on Ni-NTA and streptavidin sensor tips, dipped into wells with different concentrations of integrin; association 900 s, dissociation 1200 s; settings: both partners purified
# T1 construct: de novo designed RGD miniprotein with redesigned, extended β-loop and the motif MAVY in place of LXX(L/I); For BLI His-tagged (Ni-NTA tips) or N-terminally Avi-tagged, biotinylated (streptavidin tips); The methods of model building name a design model 'B8_BP2_dslf'; also called MAVY; source: E. coli BL21(DE3*), purified (Ni-NTA, SEC); not shown: His tag, C-terminal, kept
# B8_BP-LATY = biological target: T2, B8_BP-LATY; assay: as above; settings: both partners purified
# T2 construct: positions 13-16 worked out from the printed Y16; source: E. coli BL21(DE3*), purified (Ni-NTA, SEC); not shown: His tag, C-terminal, kept
# T2 sequence (main, as listed by the source): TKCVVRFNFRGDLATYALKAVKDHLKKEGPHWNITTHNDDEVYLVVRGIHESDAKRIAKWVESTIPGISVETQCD
binder,measurement,setting,value
"human integrin αvβ8 (soluble, construct not stated) (complex) chain 1: FNLDVDSPAEYSGPEGSYFGFAVDFFVPSASSRMFLLVGAPKANTTQPGIVEGGQVLKCDWSSTRRCQPIEFDATGNRDYAKDDPLEFKSHQWFGASVRSKQDKILACAPLYHWRTEMKQEREPVGTCFLQDGTKTVEYAPCRSQDIDADGQGFCQGGFSIDFTKADRVLLGGPGSFYWQGQLISDQVAEIVSKYDPNVYSIKYNNQLATRTAQAIFDDSYLGYSVAVGDFNGDGIDDFVSGVPRAARTLGMVYIYDGKNMSSLYNFTGEQMAAYFGFSVAATDINGDDYADVFIGAPLFMDRGSDGKLQEVGQVSVSLQRASGDFQTTKLNGFEVFARFGSAIAPLGDLDQDGFNDIAIAAPYGGEDKKGIVYIFNGRSTGLNAVPSQILEGQWAARSGCPPSFGYSMKGATDIDKNGYPDLIVGAFGVDRAILYRARPVITVNAGLEVYPSILNQDNKTCSLPGTALKVSCFNVRFCLKADGKGVLPRKLNFQVELLLDKLKQKGAIRRALFLYSRSPSHSKNMTISRGGLMQCEELIAYLRDESEFRDKLTPITIFMEYRLDYRTAADTTGLQPILNQFTPANISRQAHILL chain 2: EDNRCASSNAASCARCLALGPECGWCVQEDFISGGSRSERCDIVSNLISKGCSVDSIEYPSVHVIIPTENEINTQVTPGEVSIQLRPGAEANFMLKVHPLKKYPVDLYYLVDVSASMHNNIEKLNSVGNDLSRKMAFFSRDFRLGFGSYVDKTVSPYISIHPERIHNQCSDYNLDCMPPHGYIHVLSLTENITEFEKAVHRQKISGNIDTPEGGFDAMLQAAVCESHIGWRKEAKRLLLVMTDQTSHLALDSKLAGIVCPNDGNCHLKNNVYVKSTTMEHPSLGQLSEKLIDNNINVIFAVQGKQFHWYKDLLPLLPGTIAGEIESKAANLNNLVVEAYQKLISEVKVQVENQVQGIYFNITAICPDGSRKPGMEGCRNVTSNDEVLFNVTVTMKKCDVTGGKNYAIIKPIGFNETAKIHI",Kd,B8_BP_dslf,1.9 nM
same,Kd,B8_BP-LATY,0.5 nM
